Assay results reported in patent publication US20230212258A1 (MCMASTER UNIVERSITY, published 2023).

Experiments:
[1] = molecular target: Lck (UniProt P06239 2-509, limits assumed); test: pull-down from 293TM lysates on Her2 antigen beads, western blot for Lck
Experimental: In FIG. 13A, Her2 antigen was covalently attached to magnetic beads. […] Beads were incubated with cell lysates over night and subsequently washed and western blotted. Lck was detected using an Lck antibody, TACs were detected via Myc antibody. […] Signal was corrected relative to the negative control.

[2] = molecular target: T1, Her2Fc (UniProt P04626 23-652, limits assumed); test: flow cytometry, transduced T cells incubated with Her2Fc (FIG. 2)
T1 construct: It is printed both as Her2Fc and as FcHer2; also called FcHer2; FcHer2 antigen; not shown: Fc part
Experimental: T-cells had been incubated with Her2Fc, which later was detected via flow cytometry. The presented data was gated on CD8+ lymphocytes. The shown gates were chosen based on the untransduced control.

[3] = molecular target: T1, Her2Fc; test: flow cytometry, engineered PBMC, NGFR marker and FcHer2 (FIG. 16B)

Sequence of Lck (P06239 2-509 limits assumed): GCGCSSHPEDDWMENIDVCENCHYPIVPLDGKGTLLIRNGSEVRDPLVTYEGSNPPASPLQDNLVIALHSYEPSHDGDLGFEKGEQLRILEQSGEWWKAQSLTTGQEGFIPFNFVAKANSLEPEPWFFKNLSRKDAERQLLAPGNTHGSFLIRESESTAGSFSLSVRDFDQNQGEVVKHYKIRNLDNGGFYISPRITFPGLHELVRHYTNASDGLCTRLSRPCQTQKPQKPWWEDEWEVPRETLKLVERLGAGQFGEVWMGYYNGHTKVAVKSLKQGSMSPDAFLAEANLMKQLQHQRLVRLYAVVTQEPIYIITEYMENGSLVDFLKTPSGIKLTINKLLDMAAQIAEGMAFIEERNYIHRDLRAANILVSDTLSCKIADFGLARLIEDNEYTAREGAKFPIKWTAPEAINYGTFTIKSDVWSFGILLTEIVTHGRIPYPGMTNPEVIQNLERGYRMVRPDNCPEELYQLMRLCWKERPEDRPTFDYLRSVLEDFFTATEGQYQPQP

B1: CD4 TAC -cytosol (receptor)
chain: MSRGSDLGKKLLEAARAGQDDEVRILMANGADVNAKDEYGLTPLYLATAHGHLEIVEVLLKNGADVNAVDAIGFTPLHLAAFIGHLEIAEVLLKHGADVNAQDKFGKTAFDISIGNGNEDLAEILQKLNEQKLISEEDLNPGGGGGSGGGGSGGGGSGGGGSGSMDIQMTQTTSSLSASLGDRVTISCRASQDIRNYLNWYQQKPDGTVKLLIYYTSRLHSGVPSKFSGSGSGTDYSLTISNLEQEDIATYFCQQGNTLPWTFAGGTKLEIKGGGGSGGGGSGGGGSGGGGSEVQLQQSGPELVKPGASMKISCKASGYSFTGYTMNWVKQSHGKNLEWMGLINPYKGVSTYNQKFKDKATLTVDKSSSTAYMELLSLTSEDSAVYYCARSGYYGDSDWYFDVWGQGTTLTVFSTSGGGGSLESGQVLLESNIKVLPTWSTPVQPMALIVLGGVAGLLLFIGLGIFF
notes: It was detected through its Myc tag in the pull-down; also called TAC cytosolic deletion variant; cytosolic deletion
binding result [1]: no binding

B2: N-Darpin Tri-TAC (receptor)
chain: MSRGSDLGKKLLEAARAGQDDEVRILMANGADVNAKDEYGLTPLYLATAHGHLEIVEVLLKNGADVNAVDAIGFTPLHLAAFIGHLEIAEVLLKHGADVNAQDKFGKTAFDISIGNGNEDLAEILQKLNEQKLISEEDLNPGGGGGSGGGGSGGGGSGGGGSGSMDIQMTQTTSSLSASLGDRVTISCRASQDIRNYLNWYQQKPDGTVKLLIYYTSRLHSGVPSKFSGSGSGTDYSLTISNLEQEDIATYFCQQGNTLPWTFAGGTKLEIKGGGGSGGGGSGGGGSGGGGSEVQLQQSGPELVKPGASMKISCKASGYSFTGYTMNWVKQSHGKNLEWMGLINPYKGVSTYNQKFKDKATLTVDKSSSTAYMELLSLTSEDSAVYYCARSGYYGDSDWYFDVWGQGTTLTVFSTSGGGGSLESGQVLLESNIKVLPTWSTPVQPMALIVLGGVAGLLLFIGLGIFFCVRCRHRRRQAERMSQIKRLLSEKKTCQCPHRFQKTCSPI
notes: Chimeric receptor expressed on engineered human T cells (in 293TM cells for the pull-down); also called full length CD4-TAC
binding result [2]: binds

B3: CD4 TAC A85V, T161P mutant (receptor)
chain: MSRGSDLGKKLLEAARAGQDDEVRILMANGADVNAKDEYGLTPLYLATAHGHLEIVEVLLKNGADVNAVDAIGFTPLHLAAFIGHLEIAEVLLKHGADVNAQDKFGKTAFDISIGNGNEDLAEILQKLNEQKLISEEDLNPGGGGGSGGGGSGGGGSGGGGSGSMDIQMTQTTSSLSASLGDRVTISCRASQDIRNYLNWYQQKPDGTVKLLIYYTSRLHSGVPSKFSGSGSGTDYSLTISNLEQEDIVTYFCQQGNTLPWTFAGGTKLEIKGGGGSGGGGSGGGGSGGGGSEVQLQQSGPELVKPGASMKISCKASGYSFTGYPMNWVKQSHGKNLEWMGLINPYKGVSTYNQKFKDKATLTVDKSSSTAYMELLSLTSEDSAVYYCARSGYYGDSDWYFDVWGQGTTLTVFSTSGGGGSLESGQVLLESNIKVLPTWSTPVQPMALIVLGGVAGLLLFIGLGIFFCVRCRHRRRQAERMSQIKRLLSEKKTCQCPHRFQKTCSPI
notes: CD4 TAC with the mutated UCHT1 domain; also called UCHT1 (A85V, T161P)
binding result [3]: binds
